Results reported in patent US20170114140A1 (Amgen, published 2017).

biological target: T1, IL-17RA.HIS (extracellular domain of human IL-17RA fused to a polyhistidine tag) (human, UniProt Q96F46 33-320); assay: co-immunoprecipitation on Protein G beads, Western blot with anti-IL-17RA
T1 construct: extracellular domain

binding result	Binder
binds	IL-17RB.Fc (extracellular domain of human IL-17RB fused to the Fc region of human IgG) (Fc fusion, UniProt Q9NRM6 18-292, looked up, not shown: a dimerising Fc or GST, extracellular domain; also called HuIL-17RB: Fc) REPTVQCGSETGPSPEWMLQHDLIPGDLRDLRVEPVTTSVATGDYSILMNVSWVLRADASIRLLKATKICVTGKSNFQSYSCVRCNYTEAFQTQTRPSGGKWTFSYIGFPVELNTVYFIGAHNIPNANMNEDGPSMSVNFTSPGCLDHIMKYKKKCVKAGSLWDPNITACKKNEETVEVNFTTTPLGNRYMALIQHSTIIGFSQVFEPHQKKQTRASVVIPVTGDSEGATVQLTPYFPTCGSDCIRHKGTVVLCPQTGVPFPLDNNKSKPGGWLP

biological target: T2, human IL-17RA on cells (human PBMC; human foreskin fibroblasts) (human, UniProt Q96F46 33-866); assay: cell-based or functional assay

% Inhibition of IL-5 production (TSLP treated human PBMC + IL-2 + IL-25), inhibitor 10 micrograms/mL [%]	Binder
86	4.16.1 (antibody, IgG2, V domains shown) VH: QVQLVQSGAEVKKPGASVKVSCKASGYTLTSYGISWVRQAPGQGLEWMGWISAYSGNTKYAQKFQGRVTMTTDTSTSTAYMELRSLRSDDTAVYYCARRQLALDYWGQGTLVTVSS VL: EIVMTQSPATLSVSPGERATLSCRASQSISSNLAWYQQKPGQAPRLLIYGASTRATGIPARFSDNGSGTEFTLTISSLQSEDFAVYFCQQYDTWPLTFGGGTKVEIK
100	3.381.1 (antibody, IgG2, V domains shown) VH: QVQLVQSGAEVKKPGASVKVSCKASGYTFTRYGISWVRQAPGQGLEWMGWISAYSGNTNYAQKLQGRVTMTTDTSTSTAYMELRSLRSDDTAVYYCARRQLYFDYWGQGTLVTVSS VL: EIVMTQSPATLSVSPGERVTLSCRASQSVSSNLAWFQQKPGQAPRPLIYDASTRAAGIPARFSGSGSGTDFTLTISSLQSEDFAVYYCQQYDNWPLTFGGGTKVEIK

biological target: T2, human IL-17RA on cells (human PBMC; …); assay: cell-based or functional assay; remark: another data set of the same source

% Inhib. of IL-5 production (TSLP treated human PBMC + IL-2 + IL-25), Expt. 1 [%]	% Inhib. of IL-5 production (TSLP treated human PBMC + IL-2 + IL-25), Expt. 2 [%]	% Inhib. of IL-5 production (TSLP treated human PBMC + IL-2 + IL-25), Expt. 3 [%]	Binder
0	41	9	1.185.1 (antibody, V domains shown) VH: QVQLVESGGGVVQPGRSLRLSCAASGINFSSYGMHWVRQAPGKGLEWVAVIWYDGSNKHYADSVKGRFTISRDNSKNTLYLQMNSLRAEDTAVYYCARDTGVYWGQGTLVTVSS VL: not shown
0	6	0	2.46.1 (antibody, V domains shown) VH: QVQLVQSGAEVKKPGASVKVSCKASGNTFTGYGISWVRQAPGQGLEWMGWISAYNGNTNYAQNLQGRVTMTTDTSTSTAYMELRSLRSDDTAVYYCARRDYDILTGYYNGFDPWGQGTLVTVSS VL: DIQMTQSPSSLSASVGDRVTITCRASQGIRNDLGWYQQKPGKAPKRLIYAASSLQSGVPSRFSGSGSGTEFTLTISSLQPEDFATYYCLQHKSYPLTFGGGTKVEIK
0	13	3	2.67.1 (antibody, V domains shown) VH: QVQLVQSGAEVKKPGASVKVSCKASGYTLTRYGISWVRQAPGQGLEWMGWISAYNGNTNYAQKLQGRVTMTTDTSTSTAYMELRSLRSDDTAVYYCARRDYDILTGYYNGFDPWGQGTLVTVSS VL: DIQMTQSPSSLSASVGDRVTITCRASQGIRNDLGWYQQKPGKAPKRLIYAASSLQSGVPSRFSGSGSGTEFTLTISSLQPEDFATYYCLQHKSYPLTFGGGTKVEIK
0	79	0	2.98.1 (antibody, V domains shown) VH: QVQLVQSGAEVKKPGASVKVSCKASGYTLTRYGISWVRQAPGQGLEWMGWISAYNGNTNYAQKLQGRVTMTTDTSTSTAYMELRSLRSDDTAVYYCARRDYDILTGYYNGFDPWGQGTLVTVSS VL: DIQMTQSPSSLSASVGDRVTITCRASQGIRNDLGWYQQKPGKAPKRLIYAASSLQSGVPSRFSGSGSGTEFTLTISSLQPEDFATYYCLQHKSYPLTFGGGTKVEIK
0	16	28	2.133.1 (antibody, V domains shown) VH: QVQLQESGPGLVKPSETLSLTCTVSGGSISNYYWNWIRQSPGKGLEWIGDIYYSGSTNYNPSLKSRVTISVDTSKNQFSLKLSSVTTADTAVYYCARDGELANYYGSGSYQFYYYYGMDVWGQGTTVTVSS VL: DILMTQSPSSLSASVGDRVTITCRASQGIRNDLGWYQQKPGKAPKRLIYAASSLQSGVPSRFSGSGSGTEFTLTISSLQPEDFATYYCLQHNSNPFTFGPGTKVDIK
0		0	2.225.1 (antibody, V domains shown) VH: QVQLVQSGVEVKKPGASVKVSCKASGYTLTRYGISWVRQAPGQGLEWMGWISAYNGNTNYAQKLQGRVTMTTDTSTSTAYMELRSLRSDDTAVYYCARRDYDILTGYYNGFDPWGQGTLVTVSS VL: DIQMTQSPSSLSASVGDRVTITCRASQGIRNDLGWYQQKPGKAPKRLIYAASSLQSGVPSRFSGSGSGTEFTLTISSLQPEDFATYYCLQHKSYPLTFGGGTKVEIK
	77	100	4.16.1 (antibody, IgG2, V domains shown) VH: QVQLVQSGAEVKKPGASVKVSCKASGYTLTSYGISWVRQAPGQGLEWMGWISAYSGNTKYAQKFQGRVTMTTDTSTSTAYMELRSLRSDDTAVYYCARRQLALDYWGQGTLVTVSS VL: EIVMTQSPATLSVSPGERATLSCRASQSISSNLAWYQQKPGQAPRLLIYGASTRATGIPARFSDNGSGTEFTLTISSLQSEDFAVYFCQQYDTWPLTFGGGTKVEIK
69	82	74	3.381.1 (antibody, IgG2, V domains shown) VH: QVQLVQSGAEVKKPGASVKVSCKASGYTFTRYGISWVRQAPGQGLEWMGWISAYSGNTNYAQKLQGRVTMTTDTSTSTAYMELRSLRSDDTAVYYCARRQLYFDYWGQGTLVTVSS VL: EIVMTQSPATLSVSPGERVTLSCRASQSVSSNLAWFQQKPGQAPRPLIYDASTRAAGIPARFSGSGSGTDFTLTISSLQSEDFAVYYCQQYDNWPLTFGGGTKVEIK
28	72	45	4.393.1 (antibody, V domains shown) VH: QVQLVQSGAEVKKPGASVKVSCKASGYTFTSYGISWVRQAPGQGLEWMGWISAYNGNTKYAQKLQGRVTMTTDTSTSTVYMELRSLRSDDTAVYYCARKQLVFDYWGQGTLVTVSS VL: EIVMTQSPATLSVSPGERATLSCRASQSISTSLAWYQQKPGQAPRLLIYGTSTRATGIPARFSGSGSGTEFTLTISSLQSEDFAVYFCQQYDIWPLTFGGGTKVEIK
0		11	4.357.1 (antibody, V domains shown) VH: QVQLVQSGAEVKKPGASVKVSCKASGYTLTSYGISWVRQAPGQGLEWMGWISTYKGNTNYAQKLQGRVTMTTDTSTSTAYMELRSLRSDDTAVYYCARKQLVFDYWGQGTLVTVSS VL: EIVMTQSPATLSVSPGERATLSCRASQSISSSLAWYQQKPGQAPRLLIYGASTRATGIPARFSGSGSGTEFTLTISSLQSENFAVYYCQQYDNWPLTFGGGTKVEIK
		69	3.1404.1 (antibody, IgG2, V domains shown) VH: QVQLVQSGAEVKKPGASVKVSCKASGYTFTRYGISWVRQAPGQGLEWMGWISTYSGNTNYAQKLQGRVTMTTDTSTSTAYMELRSLRSDDTAVYYCARRQLYFDYWGQGTLVTVSS VL: EIVMTQSPATLSVSPGERATLSCRASQSVSSNLAWFQQKPGQAPRPLIYDASTRATGVPARFSGSGSGTDFTLTISSLQSEDFAVYYCQQYDNWPLTFGGGTKVEIK
0		0	2.23.1 (antibody, V domains shown) VH: QVQLVESGGGLVKPGGSLRLSCAASGFTFSDYYMSWIRQAPGKGLEWVSYISSSGSTIYYADSVKGRFTISRDNAKNSLYLQMNSLRAEDTAVYYCARDRTYYFGSGSYEGMDVWGQGTTVTVSS VL: EILMTQSPATLSVSPGERATLSCRASQSVYSNLAWYQQKPGQAPRLLISGASTRATGIPARFSGSGSGTEFTLTISSLQSEDFAVYYCQQYYNWPWTFGQGTKVEIK
0	43	0	3.1545.1 (antibody, V domains shown) VH: EVQLVESGGGSVQPGGSLRLSCAASGFTFSSYSMNWVRQAPGKGLEWVSIISSRSSIIHYADSVKGRFTISRDNAKNSLYLQMNSLRDEDTAVYYCARPKVGGGMDVWGQGTTVTVSS VL: DIQMTQSPSSLSASVGDRVTITCRASQGISNYLAWYQQKPGKFPELLIYAASTLQSGVPSRFSGSGSGTDFTLTISSLQPEDVATYYCQKYNRAPFTFGPGTKVDIK
